The source of these data is patent publication US20230346969A1, “INTERMEDIATE FOR PREPARING ANTIBODY-DRUG CONJUGATE (ADC), PREPARATION METHOD THEREFOR, AND USE THEREOF” (priority 2020, published 2023).

For data set [1], the target named is Human trophoblast cell surface antigen 2 (Trop-2), on tumor cell lines (human) (UniProt P09758). In words: flow cytometry background, taken as human IgG1 isotype control; cell line printed 'SRM-M9-409' (probably MDA-MB-468). (Flow cytometry measures light scatter and fluorescence of single cells or particles in a stream.)
For data set [2] the target is unchanged. In words: flow cytometry background, taken as human IgG1 isotype control; cell line printed 'HOC2401' (probably NCIH2452).
Data set [3] shares this target. Put plainly: flow cytometry background, taken as human IgG1 isotype control; cell line CFPAC-1.
Data set [4] has the same target. In words: flow cytometry background, taken as human IgG1 isotype control; cell line printed 'HCCHOI' (probably HCC1806).
Data set [5] has the same target. In words: flow cytometry background, taken as human IgG1 isotype control; cell line printed 'Cxoo-1' (probably Capan-1).
For data set [6] the target is unchanged. Put plainly: flow cytometry background, taken as human IgG1 isotype control; cell line printed 'SK-M55-1' (probably SK-MES-1).
The target is the same in data set [7]. In words: flow cytometry background, taken as human IgG1 isotype control; cell line printed 'SK8RS' (probably SKBR3).
For data set [8] the target is unchanged. In words: flow cytometry background, taken as human IgG1 isotype control; cell line printed 'H123' (probably HT29).
Data set [9] shares this target. Put plainly: flow cytometry background, taken as human IgG1 isotype control; cell line printed 'Cepes-3' (probably Capan-1).
Data set [10] shares this target. In words: flow cytometry background, taken as human IgG1 isotype control; cell line printed 'SKERS' (probably SKBR3).
For data set [11] the target is unchanged. In words: flow cytometry background, taken as human IgG1 isotype control; cell line printed 'MCP-83-21' (probably MDA-MB-231).
Data set [12] has the same target. Put plainly: flow cytometry background, taken as human IgG1 isotype control; cell line printed 'SRM-K9-231' (probably MDA-MB-231).
Data set [13] has the same target. Put plainly: flow cytometry background, taken as human IgG1 isotype control; cell line printed '3128' (probably HT29).
The target is the same in data set [14]. Put plainly: flow cytometry background, taken as human IgG1 isotype control; cell line printed 'CCAO205' (probably COLO205).
For data set [15] the target is unchanged. In words: flow cytometry background, taken as human IgG1 isotype control; cell line printed 'SK-WSS-7' (probably SK-MES-1).
Data set [16] has the same target. Put plainly: flow cytometry background, taken as human IgG1 isotype control; cell line printed 'CPAC-1' (probably CFPAC-1).
The target is the same in data set [17]. Put plainly: flow cytometry background, taken as human IgG1 isotype control; cell line printed 'MOA-413-468' (probably MDA-MB-468).
The target is the same in data set [18]. In words: flow cytometry background, taken as human IgG1 isotype control; cell line printed 'ECLC 214' (probably SCLC-21H).
Data set [19] has the same target. In words: flow cytometry background, taken as human IgG1 isotype control; cell line printed 'SRM-C-21H' (probably SCLC-21H).
The target is the same in data set [20]. Put plainly: flow cytometry background, taken as human IgG1 isotype control; cell line printed 'HOC1906' (probably HCC1806).
For data set [21] the target is unchanged. In words: flow cytometry background, taken as human IgG1 isotype control; cell line printed 'NCl-H1828' (probably NCI-H1688, called Trop-2-negative in paragraph 230).
For data set [22] the target is unchanged. Put plainly: flow cytometry background, taken as human IgG1 isotype control; cell line printed 'COXC28' (probably COLO205).
The target is the same in data set [23]. Put plainly: flow cytometry background, taken as human IgG1 isotype control; cell line printed 'RMCA' (pancreas; probably BXPC-3).
For data set [24] the target is unchanged. In words: flow cytometry background, taken as human IgG1 isotype control; cell line printed 'HCl-11685' (probably NCI-H1688, called Trop-2-negative in paragraph 230).
Data set [25] shares this target. Put plainly: flow cytometry background, taken as human IgG1 isotype control; cell line printed 'BKFC-Y' (probably BXPC-3).
The nature of data set [26]: Preparation of control ADC via hydrophobic VC linker (behaviour in solution). Format: physicochemical. The settings on record: hydrophobic VC linker with PTX payload. How it is done:
A Troptargeted hRS7-VC-PTX molecule was prepared via a hydrophobic VC linker (FIG. 1a).

Chain of UniProt P09758 (P09758 27-323): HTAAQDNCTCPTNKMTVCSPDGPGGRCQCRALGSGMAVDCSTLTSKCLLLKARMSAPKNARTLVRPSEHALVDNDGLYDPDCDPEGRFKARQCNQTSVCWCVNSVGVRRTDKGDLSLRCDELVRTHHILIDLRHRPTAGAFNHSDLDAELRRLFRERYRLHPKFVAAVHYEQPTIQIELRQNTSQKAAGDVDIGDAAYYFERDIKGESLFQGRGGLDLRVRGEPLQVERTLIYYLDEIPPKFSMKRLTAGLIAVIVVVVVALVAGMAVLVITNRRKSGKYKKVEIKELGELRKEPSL

As for human IgG1 isotype control (antibody), the MFI (background) worked out at 378 MFI in data set [1]; 1580 MFI in [2]; 1580 MFI in [3]; 692 MFI in [4]; 3650 MFI in [5]; 801 MFI in data set [6]. The MFI (background) in [7] worked out at 1830 MFI; in [8], 894 MFI; in data set [9] it was 3580 MFI; in [10], 1850 MFI; in data set [11] it was 1250 MFI; in [12] it was 1250 MFI. The MFI (background) in data set [13] was determined as 866 MFI; in data set [14] it was 1530 MFI; in data set [15], 691 MFI; in data set [16], 1580 MFI; in data set [17], 678 MFI; in [18] it was 1230 MFI. Also, the MFI (background) in data set [19] is 1220 MFI; in [20] it was 192 MFI; in [21] it was 480 MFI; in [22], 811 MFI; in [23], 1080 MFI; in data set [24], 868 MFI. In addition, in data set [25], the MFI (background) turned out to be 1670 MFI.
For hRS7-VC-PTX, in data set [26], the “behaviour in solution during the preparation process” value is “completely precipitated out of solution”.
